These results are taken from article PMC6736635 (Nature structural & molecular biology, 2019).

The target in this experiment is EZH2 (human, wild type, subunit of reconstituted PRC2 complexes) (human, UniProt Q15910-2 1-751). As to the kind of experiment: SEC. On the technique in general: SEC sorts molecules by how far they enter the pores of the column.

B1: EED (human, wild type, subunit of reconstituted PRC2 complexes) (natural protein)
chain: not shown
For the molecule B1, the binding result is given as “binds”.
